Measurements: patent US12295997B2, “Prostate neoantigens and their uses” (Janssen Biotech, Inc., priority 2020, dated 2025)

B1: VPFRELKNVSVLEGLRQGRLGGPCSCHCPRPSQARLTPVDVAGPFLCLGDPGLFPPVKSSI (peptide, listed as Homo sapiens)
chain: VPFRELKNVSVLEGLRQGRLGGPCSCHCPRPSQARLTPVDVAGPFLCLGDPGLFPPVKSSI
notes: CPNE7 alternative splicing
B2: CHLFLQPQVGTPPPHTASARAPSGPPHPHESCPAGRRPARAAQTCARRQHGLPGCEEAGTARVPSLHLHLHQAALGAGRGRGWGEACAQVPPSRG (peptide, listed as Homo sapiens)
chain: CHLFLQPQVGTPPPHTASARAPSGPPHPHESCPAGRRPARAAQTCARRQHGLPGCEEAGTARVPSLHLHLHQAALGAGRGRGWGEACAQVPPSRG
notes: RECQL4 alternative splicing
B3: QNLQNGGGSRSSATLPGRRRRRWLRRRRQPISVAPAGPPRRPNQKPNPPGGARCVIMRPTWPGTSAFT (peptide, listed as Homo sapiens)
chain: QNLQNGGGSRSSATLPGRRRRRWLRRRRQPISVAPAGPPRRPNQKPNPPGGARCVIMRPTWPGTSAFT
notes: ZFHX3 E763Sfs*61
B4: LWFQSSELSPTGAPWPSRRPTWRGTTVSPRTATSSARTCCGTKWPSSQEAALGLGSGLLRFSCGTAAIR (peptide, listed as Homo sapiens)
chain: LWFQSSELSPTGAPWPSRRPTWRGTTVSPRTATSSARTCCGTKWPSSQEAALGLGSGLLRFSCGTAAIR
notes: NME4->DECR2 gene fusion
B5: LQAAASGQGKQGVPCPWGCCAYAESPRALISGDAPSQVEREVPGPCLNTHSLSHRSPQLPGLPHPKQPSV (peptide, listed as Homo sapiens)
chain: LQAAASGQGKQGVPCPWGCCAYAESPRALISGDAPSQVEREVPGPCLNTHSLSHRSPQLPGLPHPKQPSV
notes: TONSL alternative splicing
B6: YAYKDFLWCFPFSLVFLQEIQICCHVSCLCCICCSTRICLGCLLELFLSRALRALHVLWNGFQLHCQ (peptide, listed as Homo sapiens)
chain: YAYKDFLWCFPFSLVFLQEIQICCHVSCLCCICCSTRICLGCLLELFLSRALRALHVLWNGFQLHCQ
B7: FVSLTAIQMASSATPWGRWPVATPTAACPRRRPSSLPTGGDSASKKPISRRAPWQPWACPGRSVNSAAPRAWCPPATTPRTQSPSRDLRPRCLSSWSS (peptide, listed as Homo sapiens)
chain: FVSLTAIQMASSATPWGRWPVATPTAACPRRRPSSLPTGGDSASKKPISRRAPWQPWACPGRSVNSAAPRAWCPPATTPRTQSPSRDLRPRCLSSWSS
notes: FASN alternative splicing
B8: KMRAIQAEGGHGQACCGGAWGWAPGDGGPQGMLTHTLPTLGFQSAWTWRREDADRAWRTPKACASRRWSI (peptide, listed as Homo sapiens)
chain: KMRAIQAEGGHGQACCGGAWGWAPGDGGPQGMLTHTLPTLGFQSAWTWRREDADRAWRTPKACASRRWSI
notes: LRRC45 alternative splicing
B9: PSGRRTKRLVTLRSGCAIQCWHPRAGPVPSALPHTERPPRLVRGAADPRTVTLGRSPAVMPRAPA (peptide, listed as Homo sapiens)
chain: PSGRRTKRLVTLRSGCAIQCWHPRAGPVPSALPHTERPPRLVRGAADPRTVTLGRSPAVMPRAPA
notes: CCNF alternative splicing
B10: WGMELAASRRFSWDHHSAGGPPRVPSVRSGAAQVQPKDPLPLRTLAGCLARTAHLRPGAESLPQPQLHCT (peptide, listed as Homo sapiens)
chain: WGMELAASRRFSWDHHSAGGPPRVPSVRSGAAQVQPKDPLPLRTLAGCLARTAHLRPGAESLPQPQLHCT
notes: INCA1->CAMTA2 gene fusion
B11: VPFRELKNQRTAQGAPGIHHAASPVAANLCDPARHAQHTRIPCGAGQVRAGRGPEAGGGVLQPQRPAPEKPGCPCRRGQPRLHTVKMWRA (peptide, listed as Homo sapiens)
chain: VPFRELKNQRTAQGAPGIHHAASPVAANLCDPARHAQHTRIPCGAGQVRAGRGPEAGGGVLQPQRPAPEKPGCPCRRGQPRLHTVKMWRA
notes: CPNE7 alternative splicing
B12: HYKLIQQPISLFSITDRLHKTFSQLPSVHLCSITFQWGHPPIFCSTNDICVTANFCISVTFLKPCFLLHEASASQ (peptide, listed as Homo sapiens)
chain: HYKLIQQPISLFSITDRLHKTFSQLPSVHLCSITFQWGHPPIFCSTNDICVTANFCISVTFLKPCFLLHEASASQ
B13: LLEPFRRGEPGPRGLLSGSSRGGEGPGRSIEAAPATPLPCCRKNPCRPQPSRFLPPRVLLVIILPKLDCPKLGF (peptide, listed as Homo sapiens)
chain: LLEPFRRGEPGPRGLLSGSSRGGEGPGRSIEAAPATPLPCCRKNPCRPQPSRFLPPRVLLVIILPKLDCPKLGF
notes: AMACR alternative splicing

Tested on: CD8+ and CD4+ T cells (autologous CD3+ Pan-T cells isolated from human normal PBMCs)
Assay: Exogenous autologous normal donor restimulation assay (15-mer overlapping peptide pools on CD1c+ dendritic cells, TNFα/IFNγ flow cytometry)
Type: cell-based
Conditions: 15-mer overlapping peptide pool; for Maximum Fold Change Over Background CD4+ cells / Maximum Fold Change Over Background CD8+ cells / Maximum Frequency of TNFα/IFNγ Double Positive CD4+ T cells / Maximum Frequency of TNFα/IFNγ Double Positive CD8+ T cells: Table 25; for Maximum Fold Change Over Background CD4+ cells: TNFα+IFNγ+ CD4+ T cells; for Maximum Fold Change Over Background CD4+ cells / Maximum Fold Change Over Background CD8+ cells: highest fold change over negative control across normal donors; for Maximum Fold Change Over Background CD8+ cells: TNFα+IFNγ+ CD8+ T cells; for Maximum Frequency of TNFα/IFNγ Double Positive CD4+ T cells / Maximum Frequency of TNFα/IFNγ Double Positive CD8+ T cells: highest frequency across normal donors; for Max. Fold Change over background CD4+ TNFαINFγ double positive DP / Max. Fold Change over background CD8+ TNFαINFγ double positive DP / Max. Frequency of CD4+ TNFαINFγ DP / Max. Frequency of CD8+ TNFαINFγ DP: Table 28, additional neoantigens, highest across normal donors
Summary of the method: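 Autologous CD3+ Pan-T cells from normal donors were co-cultured 12 days with irradiated CD1c+ DCs pulsed with 15-mer overlapping neoantigen peptide pools at 2.5–10 μg/mL, with IL-15 and IL-2 support. Cells were restimulated on day 11, then TNFα/IFNγ double-positive CD8+ and CD4+ frequencies read by flow. Positive means ≥3-fold over DMSO and ≥0.01%.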

Molecule | Maximum Fold Change Over Background CD4+ cells | Maximum Fold Change Over Background CD8+ cells | Maximum Frequency of TNFα/IFNγ Double Positive CD4+ T cells | Maximum Frequency of TNFα/IFNγ Double Positive CD8+ T cells | Max. Fold Change over background CD4+ TNFαINFγ double positive DP | Max. Fold Change over background CD8+ TNFαINFγ double positive DP | Max. Frequency of CD4+ TNFαINFγ DP | Max. Frequency of CD8+ TNFαINFγ DP
KIQNKNCPD (listed as Homo sapiens) [AS23, ZNF614 alternative splicing] | 5.08 | 3.24 | 0.01 | 0.07 | – | – | – | –
AGAGTISEGSVLHGQRLECDARRFFGCGTTILAEWEHH (listed as Homo sapiens) [AS59, ACSL3 alternative splicing] | – | – | – | – | 59.58 | 4.22 | 0.3 | 0.08
DGHSYTSKVNCLLLQDGFHGCVSITGAAGRRNLSIFLFLMLCKLEFHA (listed as Homo sapiens) [AS55.1, SPOCK1 alternative splicing] | – | – | – | – | 20.66 | 25.26 | 0.08 | 1.47
VAMMVPDRQVHYDFGL (listed as Homo sapiens) [AS3, DNAH8 alternative splicing] | 3.86 | 7.92 | 0.054 | 0.095 | – | – | – | –
DGFSGSLFAVVTRRCYFLKWRTIFPQSLMWL (listed as Homo sapiens) [FUS18, OPN3->CHML gene fusion] | – | – | – | – | 31.76 | 42.33 | 0.04 | 0.91
B1 | 5.67 | 28.75 | 0.040 | 0.460 | – | – | – | –
B2 | 7.51 | 19.47 | 0.04 | 0.74 | – | – | – | –
B3 | 4.89 | 7.92 | 0.04 | 0.38 | – | – | – | –
B4 | 36.13 | 8.89 | 0.04 | 0.16 | – | – | – | –
B5 | – | – | – | – | 7.86 | 2.61 | 0.11 | 0.1
B6 | 111.97 | 4.17 | 0.87 | 0.08 | – | – | – | –
B7 | – | – | – | – | 293.94 | 4.72 | 1.48 | 0.09
B8 | – | – | – | – | 9.48 | 16.25 | 0.01 | 0.26
B9 | – | – | – | – | 129.8 | 1544.74 | 0.49 | 58.7
B10 | 7.15 | 1.89 | 0.04 | 0.08 | – | – | – | –
B11 | 2.98 | 5.11 | 0.03 | 0.07 | – | – | – | –
B12 | 50.19 | 5.56 | 0.39 | 0.1 | – | – | – | –
B13 | – | – | – | – | 60.93 | 11.32 | 0.23 | 0.43
